Assay results reported in the Immune Epitope Database (IEDB).

Legend:
HLA-A*68:02 = experiment: IEDB peptide-MHC binding, purified MHC/direct/fluorescence; filed as Kd, often an IC50 or EC50 that approximates it; ≥ and ≤ were set here for values at or beyond the usual limits of such assays
HLA-A*03:01 [1] = experiment: as above
HLA-A*02:12 = experiment: as above
HLA-A*02:03 = experiment: as above
HLA-A*24:03 = experiment: as above
HLA-A*23:01 = experiment: as above
HLA-A*02:11 = experiment: as above
HLA-A*02:19 = experiment: as above
HLA-A*29:02 = experiment: as above
HLA-A*02:16 = experiment: as above
HLA-A*02:01 [2] = experiment: IEDB peptide-MHC binding, purified MHC/competitive/fluorescence; filed as Kd, often an IC50 or EC50 that approximates it; ≥ and ≤ were set here for values at or beyond the usual limits of such assays
HLA-B*39:01 = experiment: as above
HLA-B*18:01 = experiment: as above
HLA-B*46:01 = experiment: as above
HLA-B*27:03 = experiment: as above
HLA-A*26:01 [3] = experiment: as above
HLA-B*51:01 = experiment: as above
HLA-B*15:17 = experiment: as above
HLA-A*69:01 [4] = experiment: as above
HLA-B*15:01 [5] = experiment: as above
HLA-B*57:01 = experiment: as above
HLA-A*31:01 [6] = experiment: as above; conditions: source organism: Zaire ebolavirus
HLA-B*07:02 = experiment: IEDB peptide-MHC binding, purified MHC/direct/fluorescence; filed as Kd, often an IC50 or EC50 that approximates it; ≥ and ≤ were set here for values at or beyond the usual limits of such assays
HLA-B*27:05 = experiment: as above
HLA-A*03:01 [7] = experiment: IEDB peptide-MHC binding, purified MHC/competitive/fluorescence; ≥ and ≤ were set here for values at or beyond the usual limits of such assays; conditions: source organism: Sudan ebolavirus
HLA-A*11:01 [8] = experiment: as above; conditions: source organism: Sudan ebolavirus
HLA-B*40:01 = experiment: IEDB peptide-MHC binding, purified MHC/direct/fluorescence; filed as Kd, often an IC50 or EC50 that approximates it; ≥ and ≤ were set here for values at or beyond the usual limits of such assays
HLA-A*30:01 = experiment: as above; conditions: source organism: Brucella melitensis
HLA-A*01:01 = experiment: as above; conditions: source organism: Brucella melitensis
HLA-A*02:01 [9] = experiment: as above; conditions: source organism: Brucella melitensis
HLA-A*11:01 [10] = experiment: as above; conditions: source organism: Brucella melitensis
HLA-A*26:01 [11] = experiment: as above; conditions: source organism: Brucella melitensis
HLA-B*58:01 = experiment: as above
HLA-B*44:02 = experiment: as above; conditions: source organism: Brucella melitensis
HLA-A*69:01 [12] = experiment: as above; conditions: source organism: Brucella melitensis
HLA-B*15:01 [13] = experiment: as above; conditions: source organism: Brucella melitensis
HLA-B*08:01 = experiment: as above; conditions: source organism: Brucella melitensis
HLA-A*31:01 [14] = experiment: as above; conditions: source organism: Brucella melitensis
[15] = source organism: Limestone Canyon virus
[16] = source organism: Orthohantavirus andesense
[17] = source organism: Orthohantavirus sinnombreense
[18] = source organism: Zaire ebolavirus
[19] = source organism: Orthohantavirus hantanense
[20] = source organism: Seoul virus 80-39
[21] = source organism: Brucella melitensis

LVTARQKLK was tested, and the Kd (HLA-A*68:02; [15]) was ≥ 20 µM, the Kd (HLA-A*03:01 [1]; [16]) was 9 µM and the Kd (HLA-A*02:12; [15]) was ≥ 20 µM. For the same sequence, the Kd (HLA-A*02:03; [15]) was ≥ 20 µM, the Kd (HLA-A*24:03; [15]) was ≥ 20 µM and the Kd (HLA-A*23:01; [15]) was ≥ 20 µM. For the same sequence, the Kd (HLA-A*02:11; [15]) was ≥ 20 µM, the Kd (HLA-A*02:19; [15]) was ≥ 20 µM and the Kd (HLA-A*29:02; [15]) was ≥ 20 µM. For the same sequence, the Kd (HLA-A*02:16; [15]) was ≥ 20 µM, the Kd (HLA-A*02:01 [2]; [17]) was ≥ 20 µM and the Kd (HLA-B*39:01; [17]) was ≥ 20 µM. The Kd (HLA-B*18:01; [17]) was ≥ 20 µM, the Kd (HLA-B*46:01; [17]) was ≥ 20 µM and the Kd (HLA-B*27:03; [17]) was ≥ 20 µM. For the same sequence, the Kd (HLA-A*26:01 [3]; [17]) was ≥ 20 µM, the Kd (HLA-B*51:01; [17]) was ≥ 20 µM and the Kd (HLA-B*15:17; [17]) was ≥ 20 µM. The Kd (HLA-A*69:01 [4]; [17]) was ≥ 20 µM, the Kd (HLA-B*15:01 [5]; [17]) was ≥ 20 µM and the Kd (HLA-B*57:01; [17]) was ≥ 20 µM.

GIVSSMHYK was tested, and the Kd (HLA-A*68:02; [18]) was ≥ 20 µM, the Kd (HLA-A*03:01 [1]; source organism: Sudan ebolavirus - Maleo (1979)) was 1.38 µM and the Kd (HLA-A*02:12; [18]) was ≥ 20 µM. The Kd (HLA-A*02:03; [18]) was ≥ 20 µM, the Kd (HLA-A*24:03; [18]) was ≥ 20 µM and the Kd (HLA-A*23:01; [18]) was ≥ 20 µM. For the same sequence, the Kd (HLA-A*02:11; [18]) was ≥ 20 µM, the Kd (HLA-A*02:19; [18]) was ≥ 20 µM and the Kd (HLA-A*29:02; [18]) was ≥ 20 µM. For the same sequence, the Kd (HLA-A*02:16; [18]) was ≥ 20 µM, the Kd (HLA-A*02:01 [2]; [18]) was ≥ 20 µM and the Kd (HLA-B*39:01; [18]) was ≥ 20 µM. For the same sequence, the Kd (HLA-B*18:01; [18]) was ≥ 20 µM, the Kd (HLA-B*46:01; [18]) was ≥ 20 µM and the Kd (HLA-B*27:03; [18]) was ≥ 20 µM. For the same sequence, the Kd (HLA-A*26:01 [3]; [18]) was ≥ 20 µM, the Kd (HLA-B*51:01; [18]) was ≥ 20 µM and the Kd (HLA-B*15:17; [18]) was ≥ 20 µM. The Kd (HLA-A*69:01 [4]; [18]) was ≥ 20 µM, the Kd (HLA-B*15:01 [5]; [18]) was ≥ 20 µM and the Kd (HLA-B*57:01; [18]) was ≥ 20 µM. For the same sequence, the Kd (HLA-A*31:01 [6]) was ≥ 20 µM.

For LVRDITESL, the Kd (HLA-A*03:01 [1]; [19]) was ≥ 20 µM, the Kd (HLA-A*02:12; [19]) was ≥ 20 µM and the Kd (HLA-A*02:03; [19]) was ≥ 20 µM. The Kd (HLA-A*24:03; [19]) was ≥ 20 µM, the Kd (HLA-A*23:01; [19]) was ≥ 20 µM and the Kd (HLA-B*07:02; [20]) was 0.0392 µM. The Kd (HLA-A*29:02; [19]) was ≥ 20 µM, the Kd (HLA-A*02:16; [19]) was ≥ 20 µM and the Kd (HLA-B*39:01; [20]) was ≥ 20 µM. For the same sequence, the Kd (HLA-B*18:01; [20]) was ≥ 20 µM, the Kd (HLA-B*27:03; [20]) was ≥ 20 µM and the Kd (HLA-A*26:01 [3]; [20]) was ≥ 20 µM. The Kd (HLA-B*51:01; [20]) was ≥ 20 µM, the Kd (HLA-A*69:01 [4]; [20]) was ≥ 20 µM and the Kd (HLA-B*57:01; [20]) was ≥ 20 µM.

In the case of DRLASTVIY, the Kd (HLA-A*03:01 [1]; [18]) is reported as ≥ 20 µM, the Kd (HLA-A*02:12; [18]) is reported as ≥ 20 µM and the Kd (HLA-A*02:03; [18]) is reported as ≥ 20 µM. For the same sequence, the Kd (HLA-B*27:05; [18]) was 8.77 µM, the Kd (HLA-A*24:03; [18]) was ≥ 20 µM and the Kd (HLA-A*23:01; [18]) was ≥ 20 µM. The Kd (HLA-A*02:11; [18]) was ≥ 20 µM, the Kd (HLA-A*02:19; [18]) was ≥ 20 µM and the Kd (HLA-A*29:02; [18]) was ≥ 20 µM. The Kd (HLA-A*02:16; [18]) was ≥ 20 µM, the IC50 (HLA-A*03:01 [7]) was ≥ 257 µM and the IC50 (HLA-A*11:01 [8]) was ≥ 120 µM. The Kd (HLA-A*02:01 [2]; [18]) was ≥ 20 µM, the Kd (HLA-B*39:01; [18]) was ≥ 20 µM and the Kd (HLA-B*18:01; [18]) was ≥ 20 µM. For the same sequence, the Kd (HLA-B*46:01; [18]) was ≥ 20 µM, the Kd (HLA-B*27:03; [18]) was ≥ 20 µM and the Kd (HLA-A*26:01 [3]; [18]) was ≥ 20 µM. The Kd (HLA-B*51:01; [18]) was ≥ 20 µM, the Kd (HLA-B*15:17; [18]) was ≥ 20 µM and the Kd (HLA-A*69:01 [4]; [18]) was ≥ 20 µM. For the same sequence, the Kd (HLA-B*15:01 [5]; [18]) was ≥ 20 µM and the Kd (HLA-B*57:01; [18]) was ≥ 20 µM.

With AENCYNLEI the Kd (HLA-A*68:02; [18]) was ≥ 20 µM, the Kd (HLA-A*03:01 [1]; [18]) was ≥ 20 µM and the Kd (HLA-A*02:12; [18]) was ≥ 20 µM. The Kd (HLA-A*02:03; [18]) was ≥ 20 µM, the Kd (HLA-A*24:03; [18]) was ≥ 20 µM and the Kd (HLA-B*40:01; [18]) was 0.0822 µM. The Kd (HLA-A*02:11; [18]) was ≥ 20 µM, the Kd (HLA-A*02:19; [18]) was ≥ 20 µM and the Kd (HLA-A*29:02; [18]) was ≥ 20 µM. For the same sequence, the Kd (HLA-A*02:16; [18]) was ≥ 20 µM, the Kd (HLA-A*02:01 [2]; [18]) was ≥ 20 µM and the Kd (HLA-B*39:01; [18]) was ≥ 20 µM. The Kd (HLA-B*18:01; [18]) was ≥ 20 µM, the Kd (HLA-B*46:01; [18]) was ≥ 20 µM and the Kd (HLA-B*27:03; [18]) was ≥ 20 µM. The Kd (HLA-A*26:01 [3]; [18]) was ≥ 20 µM, the Kd (HLA-B*51:01; [18]) was ≥ 20 µM and the Kd (HLA-B*15:17; [18]) was ≥ 20 µM. The Kd (HLA-A*69:01 [4]; [18]) was ≥ 20 µM, the Kd (HLA-B*15:01 [5]; [18]) was ≥ 20 µM and the Kd (HLA-B*57:01; [18]) was ≥ 20 µM.

In the case of RLWNGRRCR, the Kd (HLA-A*30:01) is reported as 1.75 µM, the Kd (HLA-A*03:01 [1]; [21]) is reported as 0.634 µM and the Kd (HLA-A*01:01) is reported as ≥ 20 µM. For the same sequence, the Kd (HLA-A*02:01 [9]) was ≥ 20 µM, the Kd (HLA-A*11:01 [10]) was 11.4 µM and the Kd (HLA-B*27:05; [21]) was 2.04 µM. The Kd (HLA-A*24:03; [21]) was ≥ 20 µM, the Kd (HLA-A*26:01 [11]) was ≥ 20 µM and the Kd (HLA-B*58:01; [21]) was ≥ 20 µM. For the same sequence, the Kd (HLA-B*07:02; [21]) was ≥ 20 µM, the Kd (HLA-B*44:02) was ≥ 20 µM and the Kd (HLA-B*40:01; [21]) was ≥ 20 µM. The Kd (HLA-A*69:01 [12]) was ≥ 20 µM, the Kd (HLA-B*15:01 [13]) was ≥ 20 µM and the Kd (HLA-B*08:01) was ≥ 20 µM. For the same sequence, the Kd (HLA-A*31:01 [14]) was 0.0615 µM.

VSANVKGNW was tested, and the Kd (HLA-A*68:02; [16]) was ≥ 20 µM, the Kd (HLA-A*03:01 [1]; [16]) was ≥ 20 µM and the Kd (HLA-A*02:12; [16]) was ≥ 20 µM. For the same sequence, the Kd (HLA-A*02:03; [16]) was ≥ 20 µM, the Kd (HLA-A*24:03; [16]) was ≥ 20 µM and the Kd (HLA-B*58:01; [16]) was 0.0023 µM. For the same sequence, the Kd (HLA-A*02:11; [16]) was ≥ 20 µM, the Kd (HLA-A*02:19; [16]) was ≥ 20 µM and the Kd (HLA-A*29:02; [16]) was ≥ 20 µM. For the same sequence, the Kd (HLA-A*02:16; [16]) was ≥ 20 µM, the Kd (HLA-A*02:01 [2]; [16]) was ≥ 20 µM and the Kd (HLA-B*39:01; [16]) was ≥ 20 µM. The Kd (HLA-B*18:01; [16]) was ≥ 20 µM, the Kd (HLA-B*46:01; [16]) was ≥ 20 µM and the Kd (HLA-B*27:03; [16]) was ≥ 20 µM. For the same sequence, the Kd (HLA-A*26:01 [3]; [16]) was ≥ 20 µM, the Kd (HLA-A*69:01 [4]; [16]) was ≥ 20 µM and the Kd (HLA-B*15:01 [5]; [16]) was ≥ 20 µM.
